# Assay: yeast display, Sf9 membrane polyspecificity reagent, FACS + sequencing; frameworks hold sequencing errors
# Outline: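 A synthetic nanobody library was expressed on Saccharomyces cerevisiae BJ5465 by galactose induction for 36–48 hours. The library was stained for 1 hour at 4 °C with 10% biotinylated, detergent-solubilized Sf9 membrane reagent and enriched with streptavidin microbeads before FACS. Low and high (top ~1%) gates were set on anti-HA fluorescence for expression and streptavidin fluorescence for reagent binding, and each polyreactivity label reflects the gate of origin.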
row,Sequence,polyreactivity (PSR sort gate)
1,QVQLVVSGGGLVQAGGSLRLSCAASGSTFQYNAMGWYRQAPGKERELVAAISTGTSTYYADSVKGRFTISRDNAKNTVYLQLNSLKTEVTAVYYCAAEYWGDYTEYNYWGHGTQVTVSS,high polyreactivity
2,QVQLVVSGGGLVQAGGSLSLSWAASGRIFSSYAMGWYRQAPGKERELDAAIDRTDSTYYADSVKGRFTISRDNAKNTVYLQMNSLIPEDTAVYYCAVLTYRYQSWGNYYLEYDYWGQGTEVTVSS,low polyreactivity
3,QVQLVVSGGGLVQPGGSLRLSCAASGRTFPYYAMGWYIQAPGKERELVARITGSGTSTNYADSVKGRFTISRDKSKNTVYLKMNSLKPEDTAVYYCAAPKYGSYYIADYEYWGQGTHVTVSS,low polyreactivity
4,QVQLVYSGGGLVQAGGSLRLSCAASGSLFYHNAMGWYRQAAGKEMELDADISWSGGSTYYADSVKGRFTISRDYAKNTVYLQMNSLKPEDTAVYYGNTDARYDEYDEFDYWGQGTQVTVSS,low polyreactivity
5,QVQLVYTLGGLDQAGGSLRVSCYASGRTFVYYPMGWYRQAPGKERELVAAITRSGGRTYYADSVKGRFTISRDNAKNTVYLQKYSMKPEETAVYYCAARYCDNPYWFDYWGQGTQVTVSS,high polyreactivity
6,QVQMQERAAWCRRAGSLRLSCAASGNITDYYFMSWYRQAPGKERELVAAIAPGSNTYYADSVKGRFTISRDNAKNTVYLQMNSLKPEDTAVCFCAANSTQYTWFDYWGQGTQVPVSS,low polyreactivity
7,QVQPVESGGGLVQAGGSLRLSCAASGLTFYRYAMGWYRQAPGKERELVAAISSGSSTYYADSVKGRFTISRDNSKNTVYLQLNILKPEDTAVYYCAARSIDAHGSRYGYWGQGTQVTVSS,high polyreactivity
8,QVQQQESGGGLVQAGGSLRLSCAASGTIFQLTVMGRYRQAPGKERELVASIDYGGNTNYADSVKGRFTISRDNAKNTVYLQMNSLKPEDTAVYYCAASSDSWTTHPYWGQGTQGTVSS,low polyreactivity
9,QVQQQESGGGRCSGRRTTPGLRGERHYFSLLHGLVSPGAGQEREFVAAIAVRSTYYADSAKGRFTINRDNAKYTVYLQMNSLKPEDTSVYSCAAYYSYYGGDYWGQGTQVTVSS,low polyreactivity
10,QVQREESGGGLVQAGGSLRLSCAASGSTFDGNSMGWYTQAPGKERELVAAIRKSGGRTYYADSVKGRFTISRDNAKNTVYLQMNSLKPDDTAVYYCAAYERGFTYRRYYWGQGTQVTVSS,high polyreactivity
11,QVQRLESGGGLVQAGGSLRLSCAASGGTIDWNAMGWYRQAPGKETEFVAAITSSGGSTYYADSVKGRFTISRDNAKNSVYLQMTSLKPEDTAVYECAADFWYYQYPYGGGGYWGQGTQVTVSS,low polyreactivity
12,QVQRVDSGGGLVQAGGSLRLSCDPSGRTHDVNAMGWYRQAPWKERQLVAAISYSGGITYYADSVKGRFTISRDNAKNTVYLQMNSLKPEDTAVYYCAVVGGYPSYTVDYWGQGSQVTVSS,low polyreactivity
13,QVQRVECGGGLVLAGGSLRLSCAASGRILVFYAMGWYRQARGKVRELVATITDTGRTNYADSVKGRCTISRDNAKKTDSLQMTSQKPEDTAVYYCAKQRDYGFPWATYDYWGQGTQGTVSS,low polyreactivity
14,QVQRVESAGCLVQAGVSLRLSCPPSRRIFSRYAIGWYRQAPGKERELVAAISWSGGSTYYADSVKGRFTISRDNAMNTVYLQLIILKPEDTAVYYCAARRSYSYGSWGQGTQVTVSS,high polyreactivity
15,QVQRVESGGGIVQAGGSLRLTCAASGITFVSYTIGWSRQAPGKEREFVAAITWNVASTYYADSVKGRFTISRDNAKNTVYLQMNSLKPEDTAVYYCAAYSRFTSDYWGQGTQVTVSS,high polyreactivity
16,QVQRVESGGGLGQAGGILLLSCAASGFTFKWYSMGWYRQARGKERELVAGISRRGGTTNYADSFKGRFTISRHNAKNTVNLQINSLKPEDPPVYYCAAESQLTKYYYWGQGTQVTVSS,high polyreactivity
17,QVQRVESGGGLLQAGGSLSLSCAASGSIFEWYAMGWYRQEPGTERELVAAIRSGGTTNYADSVKGRFTISRDHAKNTVYLQMNSLKPEVTAVYDCAAKSVTGLFRYYYWGQGTQVTVTS,low polyreactivity
18,QVQRVESGGGLVQAGGILSLSCAASGSIFPWYAMGWYIQAPANERELVAAITISGGSTHYADSVKGRFTISRDNAKNSVYLEMNSLIPEDTAVYYCSTPRYPSYEYWGLGTQVTVSS,low polyreactivity
19,QVQRVESGGGLVQAGGRLRLSCAASGFTFFHYAMGRYRQAPGKERELVAAISWSGGTTYYADSVKGRFTISRDNAKNTVYLQMNCLKPEDTAVYYFAADGGLGWRWLPLGYRYGFDYWGQGTQVTVSS,low polyreactivity
20,QVQRVESGGGLVQAGGRLRLSCAASGRTFDNYAMGWYIQAPGKERELVSAISGGGGTNYADSVKGRFTISPDNAKNTVYLQMNSLKPEDTAVYYCAADTNGYEFDYWGQGTQVTVSS,low polyreactivity
21,QVQRVESGGGLVQAGGRLRLSCAASGSISVAKAMGWYRQAPGKERELVAAITDSGDDTYYADSVKGRFTISRDNAKNTVYLQMNSLKPEDTAVYYCAAGLRLDLGAMYYWGQGTQVTVSS,low polyreactivity
22,QVQRVESGGGLVQAGGSLRISCAASGSTFITYAMGWYRQERGKERELVAASRWSGGGTYYADSVKGRFTISRDNAKNTVYVQMNSLKPEDTAVYYCAADHFNYTTGRDYWGQGTQVTVSS,low polyreactivity

row,Sequence,polyreactivity (PSR sort gate)
1,QVQRVESGGGLVQAGGSLRLRCAASGRTFGYYAMGWYRHAPGKERVLVAAINSRGGSTYYADPVKGRFTISRDNAKNTVYLQMNSLKPEDTAVYYCAKRWCSYGSYSLYDYWGQGTQVTVSS,high polyreactivity
2,QVQRVESGGGLVQAGGSLRLSCAASGFIFDGYAMGWYRQAPGKERELVAAIDSGGDRTYYADSVKGRFTISRDNAKNTVYLLMNSLKPEDTAVYYCAADSSDPTGYEYGGQGTQVTVSS,low polyreactivity
3,QVQRVESGGGLVQAGGSLRLSCAASGFIFTSNARGWYRPAPGKERELVAASTKSGGSTYYADSVKGRFTISRDNAKNTVYLQMNSLKPEDTAVYYCAAYPTSRYKYEYWGQGTQVTVSS,high polyreactivity
4,QVQRVESGGGLVQAGGSLRLSCAASGFIITRYSMGWYRQAPGKEREMVAVINSSGGSTYYADSVKGRFTISRDTAKNTVYVQMNSLKPEDTAVYYCNALSRYRIWSYGYWGQGTQVTVSS,high polyreactivity
5,QVQRVESGGGLVQAGGSLRLSCAASGGTFPQYAMGWDRQSHGKETEFVADITSRGGTTYYADSVKGRFTISRDNAKNTVYLQMNSLKPEDTAVNYCAADNPADWWGLDYWGQGTQVTVSS,low polyreactivity
6,QVQRVESGGGLVQAGGSLRLSCAASGIIFRGYAMGWYRQAPGKERELVAAITSSGARTYYADSVKGRFTISRDNAKNTVYLQMNSLKPDDTAVYYCNATSSVRRYDSWGQGTQVTVSS,high polyreactivity
7,QVQRVESGGGLVQAGGSLRLSCAASGRIFLIYAMGWYRPAPGKERELVAGISSGGSTYYADSVKGRFTISRDNAKNTVYLQMNSLKPEDTAVYYCAARRYYYRYLFGRYAYGYWGQGTQVNVSS,low polyreactivity
8,QVQRVESGGGLVQAGGSLRLSCAASGRIFRYYAMGWYRQAPGKERELVASISRRGGSTNYADSVKGRFTISRDNAKNTVYLQMNSLKPEYTAVYYSNAENWSPRGLYNYWGQGTQVTVSS,high polyreactivity
9,QVQRVESGGGLVQAGGSLRLSCAASGRIFVNYPIGWYRQAPGKERELVAAITSHGSTSYADSVKGRFTISRDNAKNTVYLQMNSLKPEDTAVYYCANDFFEHSPVSHTYSSSKYDYWGQGTQVTVSS,low polyreactivity
10,QVQRVESGGGLVQAGGSLRLSCAASGSIFNSNAMGWYRLAHGKERELVAAINWRGGSTYYADSVKGRFTISRDNAKNTVYLQMNSLKPEDSAVYYCAAVGWFHDYYWGQGTQLTVSS,high polyreactivity
11,QVQRVESGGGLVQAGGSLRLSCAASGSIFSYNAMGWYRQAPGKERELVAAIRASGGDTYYADSVKGRFTISRDNAKNTVYLQMISLKPEDTAVYYCAARTYAHHYASHGYWGQGTQVTVSS,low polyreactivity
12,QVQRVESGGGLVQAGGSLRLSCAASGSILFHYAMGWYRQAPGKEREMVAAISRRGGSTYYADSVKGRFSISRDNAKNTVYLQMNSLKPEDTAVYYCAKYPSAYVDSDVTYDMDYWGQGTQVTVSS,low polyreactivity
13,QVQRVESGGGLVQAGGSLRLSCAASGSILGIYGMGWYRQAPGKERELVAAISYSGGSTYYADSVKGRFTISSDNAKNTVYLQMNSLKPEDNAVYYCAADLTRGVSYYVDFYYWGQGTQVTVSS,low polyreactivity
14,QVQRVESGGGLVQAGGSLRLSCAASGSTFNRNALGWYRPEPGKERELVAAISWRGDSTSYADSVKGRFTITRDNAKNTVYLQMNSLKPEDTAVYNCASAHAYAFYRYWYVPSEYNYWGQGTQVTVSS,low polyreactivity
15,QVQRVESGGGLVQAGGSLRLSCAGSGRIFVQYAMGWYRQAPGKERELVAAISGSGGRTYYADSVKGRFTISRDNAKNTVYLQMNSLKPEDTAVYYCARRGAYTGRYDYWGQGTQVTVSS,high polyreactivity
16,QVQRVESGGGLVQAGGSLRLSCAGSGSTFAQNGMGWYRPAPGKERELVAAIRWNGGSTYYADSVKGRFTISRDNAKNTVYLQMNSLKPEDTAVYYCAARHPLYRVQHEDWGQGTQVTVSS,low polyreactivity
17,QVQRVESGGGLVQAGGSLRLSCAHSGRTFPRYVMGRYRQAPAKERELVAAITSSGGSTYYADSVKGRFTISRDNAKNTVYLQMNSLKPEDTAVYYCAAYARPYSGPYAYRLDYWGQGTQVTVSS,high polyreactivity
18,QVQRVESGGGLVQAGGSLRLSCSASGRTFGHNTMGRYRQAPGKETEFVAAIDFNGGSTYYADSVKGRFTISRDNAQNTVYLQMNSLKPEDTAVYYCAADIYFYYYGSYDYWGQGTQVTVSS,low polyreactivity
19,QVQRVESGGGLVQAGGSLRLSSADSGSTLSGYAMGWYRQAPGKERELVATIRITGGRTYYADSVKGRFTISRDNAKNTVYLQMNSLKPEDTAVYYCNVRSRRRVSSYDYWGQGTQVTVSS,high polyreactivity
20,QVQRVESGGGLVQAVGSLRLSCAPSGIIIPVKAMGWYRQAPGKERELVAAITTGGSTNYADSVKGRFTISRDNAKNNVYLQMNSLKPEDTAVYYCAADTARTRIFDYWGQGTQVTVSS,low polyreactivity
21,QVQRVESGGGLVQEGGSLSLSCAASGSTYKNAMGWYRQAPGKERELVAAITWSGGTTYYADSVKGRFTISRDNAKNTVYLQINSLKPEDTAVYYCAAEYRWYSRYFNYWGQGTQVTVSS,high polyreactivity
